This is an account of results in US20220332804A1 (CSL INNOVATION, published 2022).

Positions count from the first letter of the chain named.

What all share (assay): SPR, mAb captured, C2 mutant analyte;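 further: Anti-C2 mAbs captured on goat anti-human IgG Biacore CM5 chips, alanine or serine C2 surface mutants flowed over at 37 °C, double-referenced sensorgrams fitted to a 1:1 binding model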
On the technique in general: Surface plasmon resonance follows binding to a sensor surface in real time, without labels.

One experiment addresses T1, human C2 K274A (human, UniProt P06681 21-752).
T1 sequence: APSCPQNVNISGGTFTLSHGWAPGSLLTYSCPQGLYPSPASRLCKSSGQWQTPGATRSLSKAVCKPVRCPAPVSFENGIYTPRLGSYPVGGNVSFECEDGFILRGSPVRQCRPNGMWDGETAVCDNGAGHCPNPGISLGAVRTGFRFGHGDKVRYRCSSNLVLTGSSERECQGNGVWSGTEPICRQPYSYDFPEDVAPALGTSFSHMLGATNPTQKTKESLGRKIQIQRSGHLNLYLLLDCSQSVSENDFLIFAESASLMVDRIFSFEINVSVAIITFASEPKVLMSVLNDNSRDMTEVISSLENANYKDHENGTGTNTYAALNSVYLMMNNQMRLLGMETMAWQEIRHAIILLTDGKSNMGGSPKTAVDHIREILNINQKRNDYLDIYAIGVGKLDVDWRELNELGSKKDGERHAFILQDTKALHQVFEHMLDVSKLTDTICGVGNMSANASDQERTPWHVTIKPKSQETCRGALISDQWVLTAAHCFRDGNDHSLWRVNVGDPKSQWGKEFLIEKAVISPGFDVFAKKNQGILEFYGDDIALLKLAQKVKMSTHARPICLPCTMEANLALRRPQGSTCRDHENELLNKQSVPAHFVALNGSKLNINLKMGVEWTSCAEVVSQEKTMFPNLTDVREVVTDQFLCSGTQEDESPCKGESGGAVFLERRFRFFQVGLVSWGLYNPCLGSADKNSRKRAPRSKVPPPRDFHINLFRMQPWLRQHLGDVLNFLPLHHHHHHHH

Another experiment concerns the target T2, human C2 N467A (human, UniProt P06681 21-752).
T2 sequence: T1 sequence with A254K, N447A

A further experiment addresses T3, human C2 V418A (human, UniProt P06681 21-752).
T3 sequence: T1 sequence with A254K, V398A

The target in the next experiment is T4, human C2 E324A (human, UniProt P06681 21-752).
T4 sequence: T1 sequence with A254K, E304A

B1: RF16-214 (antibody, V domains shown)
VH: EVQLLESGGGLVQPGGSLRLSCAASGFTFSWYQMMWVRQAPGKGLEWVSRIYPSGGGTAYADSVKGRFTISRDNSKNTLYLQMNSLRAEDTAVYYCARDAGYGDNWGQGTLVTVSS
VL: QSALTQPPSVSVSPGQTASITCSGDKLGEKYASWYQQKAGQSPVMVIYQDRKRPSGIPERFSGSNSGNTATLTISGTQAMDEADYYCQAWDTRAVVFGGGTKLTVLG
For the molecule B1, the binding result with human C2 K274A was “no binding”. Moreover, the Kd was found to be 77.2 nM with human C2 N467A, 15.6 nM with human C2 V418A and 27.8 nM with human C2 E324A.

As usually defined, the Kd is the constant that tells how readily two partners part at equilibrium. A high value points to weaker binding.
